According to patent US20040152630A1:

Target: different isoforms of the 14-3-3
Assay: not stated (R18 isolated by phage display; Wang et al. 1999 cited)

PHCVPRDLSWLDLEANMCLP [R18 polypeptide (14-3-3 amphipathic groove binding antagonist)]
Kd: 80 nM
